Reference: the supplement of paper PMC9170038

Test system: K4 kissing-loop RNA reporter
Experiment: apparent KD of K4 kissing-loop reporter; higher = weaker reporter binding
Conditions: Eterna round: R107; input ligand: FMN 200 uM
Protocol: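 RNA-MaP round R107: designed RNA switches with theophylline, tryptophan, arginine or FMN aptamers are transcribed on-chip within common flanks. They are titrated with a labelled K4 kissing-loop RNA reporter in RNA-MaP buffer (100 mM Tris pH 7.5, 80 mM KCl, 4 mM MgCl2), without ligand or with the indicated ligand. Median apparent KD per design.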
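Note: bound reporter read as fluorescence of individual clusters on recovered sequencing chips by microscopy, with normalized cluster intensities fitted with a binding model.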

Row | Sequence | apparent KD of K4 kissing-loop reporter [nM]
1 | GGAUAGGACAGAGGAUAUGGCAGUCUACAAAGUAGGCUGAAAUAAAUCCUUGAAUGGAGUGAUGUUCCAGAAGGCUGUCCUAUCG [FmnBX 23 #SwitchBubble #StaticStem #Palindromic] | 911
2 | AGGCACGAGCAAGGAUAUCGAGUAGAGUGAUGUUCUGCCUGGGUUGGCUCGAAAGGGCCUUCCCAGCGAGAAGGUGCUCGUGCCU [#2 Same State - FMN A Attempt #14 (HarryS)] | 219
3 | AAUAACUAGUAUAUUUUUAAUAAUACAGAUACCAGUGAUAAUAGACACCCUUGGCAGCUGAUCGAGUGAUGUUCGUUUAUUUUAA [#11 K4 Theophylline A Same State] | 80.2
4 | GGUGGCGUUGUUGACAGCUCACCACGAGCCAAGGAUAUAGUUUCUUCUAGAAGGUGGAAUGACAAGUGAUGUUUGUACGACUGCU [theeternabot_exclusion_KL_FMN_A_28] | 254
5 | AGCUAUUAGACGGCCGCCACUUGCUCUGAGACCUGACAUGGAACCAGUGAUGUUGGUUUGCGUGUAAGGACCGGGUUUGGUGGCG [Tiesbi] | 107
6 | UGUAAGCGCGUAGAUACCAGCAGACGAGUGAUGUUCGAGAGAUUAAGGAAAAGAAAGUAAUGCCCUUGGCAGCUAAUCAUAAGCG [whbob_Ex_Theo_B_sa94] | 248
7 | GAUUCAGUGAUGUUGGAAGGCGAGCGGGAUACCAGCCGAGACUCAGGCCCUUGGCAGCCCACAUAUCCCAGGUAGAUAGUAGAUC [Same State - Theophylline A (Freestyle 8)] | 193
8 | GUGCAGUGAUGUUGCACGAGGAAAGACGAUACCAGCCGUAAAUAAGGCCCUUGGCAGCGUGGGCUAGCACAAAAUAUGCUAGUCU [Laleingeat] | 97.9
9 | GUUGUCUACCAGAGGUGAUGUAUAGUAUCGCGAGGACCGGUACGGCCGCCACUCGUGAAGAGAAAGGAGUGAUGUUCCGUAAUGG [C10] | 255
10 | AUUUAAUUAACUGAUACCAGACUUUUUGUUUUGUAUAUUACUAGUGAUGUUAGUGUUUCUGUCCCUUGGCAGCAGUAUCUACUUA [JR_ExcTheophyB_Sub016] | 197
11 | GCCGUAGAUGGAAGGAGCGUGGUCUAGAAGCACAAGUGAUGUUUGUGGUAACCUUCUGACCCACAGGUAGGUCGCCAUCUACGGC | 88.4
12 | AUGUAUAUCUCAGGAUAUAUAUGUGUGUGGUGUAUACAUAGUGAUGUUGUGUAUAUCCACAUAUGUAUAGAAGGGAGAUGUGCAU [Skye_SS_FMNB] | 76.3
13 | GGACGACAGUCGGCCGCCACUCACAGCCGAGUGAUGUUCGGGAUUGUAGCGGAGUGAUGUUUCGCGAGGACCGGGACUGCAGUCC [Same State Typtophan B GF 27] | 200
14 | AGAGAGGUGUUUUUUUGAUGUGAGUAAUGGCGAGGACCGGUACGGCCGCCACUCGGGUGAUGUUAGUGAUGUUGAUGUAGUGAUG [p'pmullin] | 79.4
15 | UGUAUGUGAUUUGAUACCAGACCAGCUGGUGUUAGAUGAGUGAUGUUGAUCUAGGGUUGGGUCCCUUGGCAGCAAAUCGCAUACU [KL-SSTheoB22] | 593
16 | CAAGGACGGCCGUAGGCAUACCGUCGAUUCAAGGAUAUCAAGAGAAUGAGAAGGUGAAGUUUAUACAGUGAUGUUGCUAUAGAGA [theeternabot_sameState_KL_FMN_A_6] | 133

Row | Sequence | apparent KD of K4 kissing-loop reporter [nM]
17 | AGACUACCUACACUGUCAAUAGACAGUGACUAGGAUAUGCUGAUAAGCAGAAGGAGUGAUGUUCCUAAUAAAAGGUGGUAGUCAU [FmnAX 19 #SwitchBubble #StaticStem #K4Early] | 309
18 | UGACUGGAUGGAAGGAGCGCUAAACUCCUAGUGAUGUUAGGGAUACGAGACAAAGUCUUGAAGCAGGUAGGUCGCCAUCUAGUCU [FiskerMod 10 - Jieux - Same State - Arginine B] | 170
19 | GCCUAGCAGGGAAGGAGCGCCAGGAGAAGAAAUGGAGAGAGUUGAGUGAUGUUCAAAUGGUGGCAGGUAGGUCGCCCUGCUAGGC [KL-SSArg B12] | 388
20 | GACGGGUUGCUGCUCAAUCCGUCGCAUGAUCGAGGACCGGUACGGCCGCCACUCGAGGCCAUGCCGUACGAGUGAUGUUCGUGCG [Xeerlaus] | 387
21 | AUGCGCGCGGCGGCCGCCACUCGCAUGAGAGUGAUGUUCUCGCCGGGCCCGCAAGGGCCCGGUGUGAGGACCGGGCCGGGCUGCG [#2 Same State - Tryptophan B Attempt #18 (HarryS)] | 632
22 | GUUCGAUUCUGAGUGAUGUUGAGAAUUGAGAAGGAUAUCCAGAAAAGGAGAAGGUCUACGUCAUGCGCCUCGAUUUGCUAGCUGC [theeternabot_exclusion_KL_FMN_A_50] | 835
23 | UGGCGGACGAUCCGGAGUGAUGUUCCGGAUACCAGCAGAAGAGCCUGCCCUUGGCAGCCGUGCGACGCUGGGAGAGUCCGGCGUC [Requered] | 104
24 | GAAUUAUGUAGAAGGAGCGUUAGAAGGUAUAGGUGCGAGUGAUGUUUGGAUUUGUUAAUUUGACAGGUAGGUCGCUACAGAAGGA [KL-SSArg B18 #analogue] | 946
25 | AAAUUCUUUUUUUUAUUUAACUUUUCAGAAGGAGCGUGGUAGUACACAGGUAGGUCGCUGAAUUUUAGACUAGUGAUGUUAGUUA [JR_SSArginiA_Sub008] | 130
26 | CGUCGGUAGUGAUGUUGCCACGACGCUUUUAAGGAUAUAAGCUAAGUUAGAAGGUAAGAGAGUCAGCCCGGUGGCCUUAGAGUAG [theeternabot_exclusion_KL_FMN_A_17] | 257
27 | AGUUCUUGCCGAAGGAGCGAGGCAGAGUGAUGUUCUGCAAGAGGUCGAAAGACCUCACUGCCUCAGGUAGGUCGCGGCAUGAACA [Omei KL Arginine B Exc A v4] | 801
28 | AAGCGUAAAAUGGCGGACAUACUGCUCCCACGAGGACCGGUACGGCCGCCACUCGAAUGCGGCAGUGAUGUUGCCGCCUUAGCGU [KL-XTryp-A19] | 84.6
29 | GGUAGCAUGGCGGCCGCCACUAAGAGAGUGAUGUUCUCUUAGUUUUUUGAUAUAUUAUCAAUUCUUAGGACCGGGCCAUGCUACC | 121
30 | CCCGUACCAGUGAUGUUGGUAUGGUCUGAUACCAGUCUGUAGUCGGGCCCUUGGCAGCAGACCCUUGCCAAGGUGACGACUCCGG [Qu] | 128
31 | GCAACAUUGGUAGGAUAUCAUUCUGAGUGAUGUUCAGGGUUCAGCUAACGAAAGUUAGUUGUACCAUGAGAAGGGCUAAUGUUGC [Omei KL FMN B SS A v5] | 425
32 | UGCUGGUCAUAGCGUAGUGUGAGCCGCUCACGAGGACCGGUACGGCCGCCACUCGUUACAAAGCAGUGAUGUUGCAAUAGGCUCU [theeternabot_sameState_KL_Trp_A_24] | 332

Same assay, conditions: Eterna round: R107; input ligand: arginine 13.2 mM

Row | Sequence | apparent KD of K4 kissing-loop reporter [nM]
33 | GGAUAGGACAGAGGAUAUGGCAGUCUACAAAGUAGGCUGAAAUAAAUCCUUGAAUGGAGUGAUGUUCCAGAAGGCUGUCCUAUCG [FmnBX 23 #SwitchBubble #StaticStem #Palindromic] | 156
34 | AGGCACGAGCAAGGAUAUCGAGUAGAGUGAUGUUCUGCCUGGGUUGGCUCGAAAGGGCCUUCCCAGCGAGAAGGUGCUCGUGCCU [#2 Same State - FMN A Attempt #14 (HarryS)] | 325
35 | AAUAACUAGUAUAUUUUUAAUAAUACAGAUACCAGUGAUAAUAGACACCCUUGGCAGCUGAUCGAGUGAUGUUCGUUUAUUUUAA [#11 K4 Theophylline A Same State] | 86.9
36 | GGUGGCGUUGUUGACAGCUCACCACGAGCCAAGGAUAUAGUUUCUUCUAGAAGGUGGAAUGACAAGUGAUGUUUGUACGACUGCU [theeternabot_exclusion_KL_FMN_A_28] | 233
37 | AGCUAUUAGACGGCCGCCACUUGCUCUGAGACCUGACAUGGAACCAGUGAUGUUGGUUUGCGUGUAAGGACCGGGUUUGGUGGCG [Tiesbi] | 92.2
38 | UGUAAGCGCGUAGAUACCAGCAGACGAGUGAUGUUCGAGAGAUUAAGGAAAAGAAAGUAAUGCCCUUGGCAGCUAAUCAUAAGCG [whbob_Ex_Theo_B_sa94] | 335
39 | GAUUCAGUGAUGUUGGAAGGCGAGCGGGAUACCAGCCGAGACUCAGGCCCUUGGCAGCCCACAUAUCCCAGGUAGAUAGUAGAUC [Same State - Theophylline A (Freestyle 8)] | 106
40 | GUGCAGUGAUGUUGCACGAGGAAAGACGAUACCAGCCGUAAAUAAGGCCCUUGGCAGCGUGGGCUAGCACAAAAUAUGCUAGUCU [Laleingeat] | 99.6
